Test results from a protein production outcome set (Wang et al. 2014).

experiment: label from the status in PepcDB records

**Q.** For “MGRSQATAESYRDSLTIFKNYLVGELGKSISTFQFSDCTKECIYNFREYLLANGSQPSTVNVRVAAIRAYLNYASDMDISVQSVALAILEHHHHHH”, which protein production is on record?
**A.** failed

**Q.** Which protein production does the source give for “MGSAERFQRLLGDRYELRGVLGRGGMAEVRDGWDTRLARPVAIKLLYPALAADADLRARFEREARAAAALTHPHVVAVHDCGEHAGTPYIVMERLSGATLADEIAAGPLPQERVAELLDQILSALIAAHAAGIVHRDIKPGNILIGHTGQAKLADFGIAKTDGVPHTQAGQILGTMAYLSPQRVTGQPAGFADDLYAVGVVGYEALTGRRPFDRDNPAAMVRAILDDVPVPIASVRSDVAPGLIHVIDMAMAREVAFRYPDAATMRAALTGAEPPTQRVGRRQTKVLAAPLPPIPPPPVLPSPRHWRTRLILAVLGIVSTLILVLVLALARGSSGLTSPTSTPTATTVPPATSAVVPPPVPSTPVPAAVPEEPRGPGRGPGPGPGPGKGKGHEKGHGPKGPKGPPHP” here?
**A.** failed

**Q.** For “MGSDISQFSASPAARQHTWTLAAYRYMARKRLGGKTAIDLKSVATKSWDIAPGEATVSPPAIFLPGQLDRVTGWEGKRFYPYVHPAQTMAGGIHTLQGPTRGYLIKDVWLVDGALYKGKASHWLSQKPSTFPTILIDHEIDRAAIYCTLNGNAWFGTWLMEDCPTYALACNEGIPVTTAPSARYPLFTQAPAYEDWLDMKPLRLRSAFFRELVLFDDQSNNRSRHARYRAMGDKLLSHVTHTQHPGVFLLRGGDGDLRLLRNELELAEHLRTTRGFRIVNPLKSDVPSIVAACAGAKVVIGVEGSQLVHGVNVLQAGGCLLTLQPPNRFVSYYKYLTDRDHQHFGFVVGLPEGDGFRIDIDEVERTLDLFPR”, which protein production is on record?
**A.** failed

**Q.** With “MGSGAGNFLKVLLRNFDVLAGPVVSLVYPLYASVQAIETQSHADDKQWLTYWVLYSLLTLIELTFAKLIEWLPIWSYMKLILTCWLVIPYFSGAAYVYEHFVRPVFVNPRSINIWYVPKKMDIFRKPDDVLTAAEKYIAENGPDAFEKILSRADKSKRYNKHEYESYETMYGEGYQY” as the sequence, how does the protein production read?
**A.** failed

**Q.** With “MGSGGVVHCRCAKCFCYPTKRRIRRRPRNLTILSLPEDVLFHILKWLSVEDILAVRAVHSQLKDLVDNHASVWACASFQELWPSPGNLKLFERAAEKGNFEAAVKLGIAYLYNEGLSVSDEARAEVNGLKASRFFSLAERLNVGAAPFIWLFIRPPWSVSGSCCKAVVHESLRAECQLQRTHKASILHCLGRVLSLFEDEEKQQQAHDLFEEAAHQGCLTSSYLLWESDRRTDVSDPGRCLHSFRKLRDYAAKGCWEAQLSLAKACANANQLGLEVRASSEIVCQLFQASQAVSKQQVFSVQKGLNDTMRYILIDWLVEVATMKDFTSLCLHLTVECVDRYLRRRLVPRYRLQLLGIACMVICTRFISKEILTIREAVWLTDNTYKYEDLVRMMGEIVSALEGKIRVPTVVDYKEVLLTLVPVELRTQHLCSFLCELSLLHTSLSAYAPARLAAAALLLARLTHGQTQPWTTQLWDLTGFSYEDLIPCVLSLHKKCFHDDAPKDYRQVSLTAVKQRFEDKRYGEISQEEVLSYSQLCAALGVTQDSPDPPTFLSTGEIHAFLSSPSGRRTKRKRENSLQEDRGSFVTTPTAELSSQEETLLGSFLDWSLDCCSGYEGDQESEGEKEGDVTAPSGILDVTVVYLNPEQHCCQESSDEEACPEDKGPQDPQALALDTQIPATPGPKPLVRTSREPGKDVTTSGYSSVSTASPTSSVDGGLGALPQPTSVLSLDSDSHTQPCHHQARKSCLQCRPPSPPESSVPQQQVKRINLCIHSEEEDMNLGLVRL” as the sequence, how does the protein production read?
**A.** failed

**Q.** With “MGSGWGPLEPWDRLAQPRPATGRLAAPPHCPPALPLHSAAPGSRTGTGAMERTAGKELALAPLQDWGEETEDGAVYSVSLRRQRSQRSTPEGSGDGQTPIPAMDTFLQYRTSKVRALRAARLERLVHELVSGDREQDPGFVPAFLATHRAFVPTARVLGFLLPPPPPPPPPPAGVDSKRTEGQDLNFSKNLRAVVSVLGSWLRDHPQDFRDPPDHQNLGDVRIFLGWAAPGGAEVREAEKLLEDFLKEAKEEQTEGEQRLAWAGPPWAAQSPRSEFAEDYSEEEGLRSEGPELLDFSVDEVAEQLTLMDVELFLRVRSCECLGSMWSQRDRPGAAGISPTVRATVAQFNAVTGCVLGSVLAAPGLAASQRAQRIEKWIRIAQRCRELRNFSSLRAILSALQSNPIYRLKRSWGAVSREPLSVFRKLSQIFSDEDNHLSSRAILSQEETTEGPQGDDCSPGSLPSKLPPGPVPYLGTFLTDLVMLDTALPDMLKGNLINFEKRRKEWEILARIQQLQHRCQHYSLSPRPPILAALRAQRQLSEEQSYRVSRVIEPPAASCPSSPRIRRRISLTKRLSAKLSREKNQSPGGSPGDPPSPTSSVSPGSPPASPRSQDPPPGSPPASPGPQSPSTKLSLSMEPPGPWPMTLTPSSSRTPLLGQQTSEARVIRVSINNNHGNLYRSILLTCQDKAPSVVQRALEKHNVPQPWARDYQLLQVLPGDRELLIPDSANVFYAMNPAAPGDFLLRRKEGTGHTPSASPS” as the sequence, how does the protein production read?
**A.** failed

**Q.** With “MGSIEEVLLEERLIGYLDPGAEKVLARINRPSKIVSTSSCTGRITLIEGEAHWLRNGARVAYKTHHPISRSEVERVLRRGFTNLWLKVTGPILHLRVEGWQCAKSLLEAARRNGFKHSGVISIAEDSRLVIEIMSSQSMSVPLVMEGARIVGDDALDMLIEKANTILVESRIGLDTFSREVEELVECF” as the sequence, how does the protein production read?
**A.** not failed

**Q.** Which protein production does the source give for “MGSKPSSLADEVAIIVEQVDKVMGMVFWCPLYWESIELLAKDEVSRAIFYGLTEGCKLDYLKYKTKASMVPEMTRFYS” here?
**A.** not failed

**Q.** For “MGSKTSPKWISAILRWPLLWHAARLALVSAYILGGFTKLLDLAGAAAEQEHFGLYPGWLWASAAILVELFGSLLVVINRWVWLGAGGLGILTFVAMLTANAFWTMGGHERFMATNAFFEHLGLIAGLVIVTILSEEAVTRPKSGAGSQAIQGVSR”, which protein production is on record?
**A.** failed

**Q.** With “MGSLRLLADIQGEDLESLYGYAKQLFDGGEIAAARNVYQLLSTLDHWNFDYLLALGLCHQRLGAHNEAVVCFGRAGLIKVDDPRAAFYAGISYRLDGNAEYASKAFKAAINWCGEQIDYQAIKASAVDMLALQQEEVPLEHHHHHH” as the sequence, how does the protein production read?
**A.** failed

**Q.** For “MGSSHHHHHHSSGENLYFQGHMDVLASGEKSRMLFERTKELFPGGVNSPVRAAVKPYPFYVKRGEGAYLYTVDGARIVDLVLAYGPLILGHKHPRVLEAVEEALARGWLYGAPGEAEVLLAEKILGYVKRGGMIRFVNSGTEATMTAIRLARGYTGRDLILKFDGCYHGSHDAVLVAAGSAAAHYGVPTSAGVPEAVARLTLVTPYNDVEALERVFAEYGDRIAGVIVEPVIANAGVIPPRREFLAALQRLSRESGALLILDEVVTGFRLGLEGAQGYFNIEGDIIVLGKIIGGGFPVGAVAGSREVMSLLTPQGKVFNAGTFNAHPITMAAGLATLKALEEEPVYSVSREAAKALEEAASEVLDRTGLPYTINRVESMMQLFIGVEEVSNAAQARKADKKFYVKLHEEMLRRGVFIAPSNLEAVFTGLPHQGEALEIAVEGLRSSLKTVLGS”, which protein production is on record?
**A.** not failed

**Q.** For “MGSSHHHHHHSSGLVPRGSHMLEGIIEEKALFVTCGATVPFPKLVSCVLSDEFCQELIQYGFVRLIIQFGRNYSSEFEHLVQERGGQRESQKIPIDQFGCGDTARQYVLMNGKLKVIGFDFSTKMQSIIRDYSDLVISHAGTGSILDSLRLNKPLIVCVNDSLMDNHQQQIADKFVELGYVWSCAPTETGLIAGLRASQTEKLKPFPVSHNPSFERLLVETIYS”, which protein production is on record?
**A.** not failed

**Q.** Which protein production does the source give for “MGSSHHHHHHSSGLVPRGSPQQLVERLQEEKRIEAQKRKERQEAHLYMQVQIVAEDQFCGHQGNDMYDEEKVKYTVFKVLKNSSLAEFVQSLSQTMGFPQDQIRLWPMQARSNGTKRPAMLDNEADGNKTMIELSDNENPWTIFLET” here?
**A.** not failed

**Q.** Which protein production does the source give for “MGSSHHHHHHSSGRENLYFQGEPPPSVRREFPLKVRLSTGKDVRLSASLPDTVGQLKRQLHAQEGIEPSWQRWFFSGKLLTDRTRLQETKIQKDFVIQVIIN” here?
**A.** not failed

**Q.** With “MGSSHHHHHHSSGRENLYFQGMLLHSVQTPRGEILNVSEQEARDVFGASEQAIADARKATILQTLRIERDERLRACDWTQVQDVVLTADQKATWAKYRQALRDLPETVTDLSQIVWPQLPV” as the sequence, how does the protein production read?
**A.** not failed

**Q.** For “MGSSHHHHHHSSGRENLYFQGMNIGRLRDRITIQTLKQTRDITGEILETWEDGHTLWASVNMVSSKEAISSGAELAIGTVRIWIRYRKDINATSRIKVSTGPLAGRVLNIIGQPLPDAARTRLEILCREGAEK”, which protein production is on record?
**A.** not failed

**Q.** Which protein production does the source give for “MGSSHHHHHHSSGRENLYFQGSQESIQNKISQCKFSVCPERLQCPLEAIQCPITLEQPEKGIFVKNSDGSDVCTLFDAAAFSRLVGEGLPHPLTREPITASIIVKHEECIYDDTRGNFIIKGN” here?
**A.** not failed

**Q.** With “MGSSHHHHHHSSGRENLYFQGSQRPVDRNPPRINLMPTGANRVAMRNRGNNEADAALQALAQNGINMEDLRAALEAYIVWLRPIPLDIANALEGVGITPRFDNPEEAKVDNPLMNLSSALKRRLDA” as the sequence, how does the protein production read?
**A.** not failed

**Q.** With “MGSTQYWDLKSGVCTRIFGGHQGTITCMDLCKNRLVSGGRDCQVKVWDVDTGKCLKTFRHKDPILATRINDTYIVSSCERGLVKVWHIAMAQLVKTLSGHEGAVKCLFFDQWHLLSGSTDGLVMAWSMVGKYERCLMAFKHPKEVLDVSLLFLRVISACADGKIRIYNFFNGNCMKVIKANGRGDPVLSFFIQGNRMVVNTESNVLMFQFEHIKWQYAVEKTKQKKNKEKEEEKEENSLMEILSKCNIQVHSPRESVSSKQTVIQELLPGKPPKSRVLLKPAKFSSAVLIEELQSQGKSKSPRRDADDVEKAQKQGQLETPGKLPSHPKKKSWKIPMSPDQFLLTVSALQHARNSGEFAYPCRPQTEITDVWGPSISYPRKVLNFKGKSIQRAVDRLRLSNPPIDVKRTSIPLEIQKLQPNLKISLHSPRAQSTIPQPMIIRSRFSGSLKGGDQVTSSIERAVCSTGPLTSMQVIKPNRMLAPQVGTATLSLKKERPRIYTALDPFRVNAEFVLLTVKEEKEHQEAKMKEYQARESTGVVDPGKASKAAWIRKIKGLPIDNFTKQGKTAAPELGQNVFI” as the sequence, how does the protein production read?
**A.** failed

**Q.** Which protein production does the source give for “MGSVQVKAHADEQGRAVVRASIEIAAPPSVVFGVILDCGRAARMSPGVKRCRVVSRAADGSEVREHTVKWGFFLPALQSRSRLSLQPDREIRFTCIGGDIRACDGFWRLEPLDGGMRTRVTYDLWATAPYAAPAGLVSSLMRRTVPQSLAALRRECEGLEHHHHHH” here?
**A.** failed

**Q.** Which protein production does the source give for “MGTDKFNNIKIDKYENLINVLKTGDIFLCSGNYLVSKLIKKVSESMFSHTGIIVKWGEHTLIMESVEDDGVRIVPLEHYIKNYENSNNRYNGSLFIARHELLQNVNDDSEMIRNLIKVGFSLLNSGYDKNEIAQIVARIGLGIGRHEDNNEYICSEFVNECFKKIGVEFLTDSEGFIFPEHIAADHHVLPIAQIE” here?
**A.** not failed

**Q.** With “MGTEAEQPSPPAQQQDQENPPLCKAQNPKPARLYRFVLIFVAGSLAAWTFHALSSTNLVWKLRQLHHLPTAHYLQTRDEFALYSVEELNAFKEFYDKSVSDSVGASYTEAEQTNIKEALGALRMAQDLYLAGKDDKAARLFEHALALAPRHPEVLLRYGEFLEHNQRNIVLADQYYFQALTISPSNSEALANRQRTADVVQSLDERRLESLDSKRDALSAIHESNGALRRAKKEAYFQHIYHSVGIEGNTMTLAQTRSILETRMAVDGKSIDEHNEILGMDLAMKYINASLVQKIDITIKDILELHRRVLGHVDPIEGGEFRRNQVYVGGHIPPGPGDLALLMQRFERWLNSEHSSTLHPVNYAALAHYKLVHIHPFVDGNGRTSRLLMNTLLMRAGYPPVIIPKQQRSKYYHFLKLANEGDIRPFVRFIADCTEKTLDLYLWATSDLPQQIPMLIQTESEAGERLAQMQSPNVAQRSSILEFYESGSGDLP” as the sequence, how does the protein production read?
**A.** failed
